Experimental data: publication PMC5768893

Legend:
[1] = western blot and immunostaining, anti-pT410, endogenous PKCζ; conditions: glycan lost; control: control (Egfp shRNA) ESCs
[2] = western blot anti-pT410 after FGF4 stimulation; conditions: glycan lost; control: control cells stimulated with FGF4
[3] = western blot anti-pT410 during PrE differentiation; conditions: glycan gained; control: PrE day 4 cells without inhibitor
[4] = anti-FLAG IP, anti-pT410 blot; conditions: glycan gained; control: untreated PKCζ-FLAG cells
[5] = western blot of phosphorylated PKCζ-FLAG; conditions: glycan lost; control: wild-type PKCζ-FLAG

Protein | other: PKCζ Thr-410 phosphorylation [1] | other: PKCζ Thr-410 phosphorylation [2] | other: PKCζ Thr-410 phosphorylation [3] | other: PKCζ Thr-410 phosphorylation [4] | other: PKCζ phosphorylation [5]
PKCζ: Ogt KD (protein) parent chain: MPSRTDPKMDRSGGRVRLKAHYGGDILITSVDAMTTFKDLCEEVRDMCGLHQQHPLTLKWVDSEGDPCTVSSQMELEEAFRLVCQGRDEVLIIHVFPSIPEQPGMPCPGEDKSIYRRGARRWRKLYRANGHLFQAKRFNRGAYCGQCSERIWGLSRQGYRCINCKLLVHKRCHVLVPLTCRRHMDSVMPSQEPPVDDKNDGVDLPSEETDGIAYISSSRKHDNIKDDSEDLKPVIDGVDGIKISQGLGLQDFDLIRVIGRGSYAKVLLVRLKKNDQIYAMKVVKKELVHDDEDIDWVQTEKHVFEQASSNPFLVGLHSCFQTTSRLFLVIEYVNGGDLMFHMQRQRKLPEEHARFYAAEICIALNFLHERGIIYRDLKLDNVLLDADGHIKLTDYGMCKEGLGPGDTTSTFCGTPNYIAPEILRGEEYGFSVDWWALGVLMFEMMAGRSPFDIITDNPDMNTEDYLFQVILEKPIRIPRFLSVKASHVLKGFLNKDPKERLGCRPQTGFSDIKSHAFFRSIDWDLLEKKQTLPPFQPQITDDYGLDNFDTQFTSEPVQLTPDDEDVIKRIDQSEFEGFEYINPLLLSAEESV | increases | increases | – | – | –
PKCζ: PUGNAc (protein) parent chain: MPSRTDPKMDRSGGRVRLKAHYGGDILITSVDAMTTFKDLCEEVRDMCGLHQQHPLTLKWVDSEGDPCTVSSQMELEEAFRLVCQGRDEVLIIHVFPSIPEQPGMPCPGEDKSIYRRGARRWRKLYRANGHLFQAKRFNRGAYCGQCSERIWGLSRQGYRCINCKLLVHKRCHVLVPLTCRRHMDSVMPSQEPPVDDKNDGVDLPSEETDGIAYISSSRKHDNIKDDSEDLKPVIDGVDGIKISQGLGLQDFDLIRVIGRGSYAKVLLVRLKKNDQIYAMKVVKKELVHDDEDIDWVQTEKHVFEQASSNPFLVGLHSCFQTTSRLFLVIEYVNGGDLMFHMQRQRKLPEEHARFYAAEICIALNFLHERGIIYRDLKLDNVLLDADGHIKLTDYGMCKEGLGPGDTTSTFCGTPNYIAPEILRGEEYGFSVDWWALGVLMFEMMAGRSPFDIITDNPDMNTEDYLFQVILEKPIRIPRFLSVKASHVLKGFLNKDPKERLGCRPQTGFSDIKSHAFFRSIDWDLLEKKQTLPPFQPQITDDYGLDNFDTQFTSEPVQLTPDDEDVIKRIDQSEFEGFEYINPLLLSAEESV | – | – | decreases | decreases | –
PKCζ: T408A (protein) parent chain: MPSRTDPKMDRSGGRVRLKAHYGGDILITSVDAMTTFKDLCEEVRDMCGLHQQHPLTLKWVDSEGDPCTVSSQMELEEAFRLVCQGRDEVLIIHVFPSIPEQPGMPCPGEDKSIYRRGARRWRKLYRANGHLFQAKRFNRGAYCGQCSERIWGLSRQGYRCINCKLLVHKRCHVLVPLTCRRHMDSVMPSQEPPVDDKNDGVDLPSEETDGIAYISSSRKHDNIKDDSEDLKPVIDGVDGIKISQGLGLQDFDLIRVIGRGSYAKVLLVRLKKNDQIYAMKVVKKELVHDDEDIDWVQTEKHVFEQASSNPFLVGLHSCFQTTSRLFLVIEYVNGGDLMFHMQRQRKLPEEHARFYAAEICIALNFLHERGIIYRDLKLDNVLLDADGHIKLTDYGMCKEGLGPGDTTSTFCGTPNYIAPEILRGEEYGFSVDWWALGVLMFEMMAGRSPFDIITDNPDMNTEDYLFQVILEKPIRIPRFLSVKASHVLKGFLNKDPKERLGCRPQTGFSDIKSHAFFRSIDWDLLEKKQTLPPFQPQITDDYGLDNFDTQFTSEPVQLTPDDEDVIKRIDQSEFEGFEYINPLLLSAEESV | – | – | – | – | no change
PKCζ: Thiamet G (protein) parent chain: MPSRTDPKMDRSGGRVRLKAHYGGDILITSVDAMTTFKDLCEEVRDMCGLHQQHPLTLKWVDSEGDPCTVSSQMELEEAFRLVCQGRDEVLIIHVFPSIPEQPGMPCPGEDKSIYRRGARRWRKLYRANGHLFQAKRFNRGAYCGQCSERIWGLSRQGYRCINCKLLVHKRCHVLVPLTCRRHMDSVMPSQEPPVDDKNDGVDLPSEETDGIAYISSSRKHDNIKDDSEDLKPVIDGVDGIKISQGLGLQDFDLIRVIGRGSYAKVLLVRLKKNDQIYAMKVVKKELVHDDEDIDWVQTEKHVFEQASSNPFLVGLHSCFQTTSRLFLVIEYVNGGDLMFHMQRQRKLPEEHARFYAAEICIALNFLHERGIIYRDLKLDNVLLDADGHIKLTDYGMCKEGLGPGDTTSTFCGTPNYIAPEILRGEEYGFSVDWWALGVLMFEMMAGRSPFDIITDNPDMNTEDYLFQVILEKPIRIPRFLSVKASHVLKGFLNKDPKERLGCRPQTGFSDIKSHAFFRSIDWDLLEKKQTLPPFQPQITDDYGLDNFDTQFTSEPVQLTPDDEDVIKRIDQSEFEGFEYINPLLLSAEESV | – | – | decreases | decreases | –
